Experiments:
[1] = target: Candida glabrata Slx1 (Candida glabrata) (UniProt Q6FML9); assay: AUC
[2] = target: Candida glabrata Slx1 (Candida glabrata) (UniProt Q6FML9); assay: SEC-MALS
Candida glabrata Slx1 = target: T1, Candida glabrata Slx1 (Candida glabrata, UniProt Q6FML9 1-312); assay: co-purification
T1 sequence: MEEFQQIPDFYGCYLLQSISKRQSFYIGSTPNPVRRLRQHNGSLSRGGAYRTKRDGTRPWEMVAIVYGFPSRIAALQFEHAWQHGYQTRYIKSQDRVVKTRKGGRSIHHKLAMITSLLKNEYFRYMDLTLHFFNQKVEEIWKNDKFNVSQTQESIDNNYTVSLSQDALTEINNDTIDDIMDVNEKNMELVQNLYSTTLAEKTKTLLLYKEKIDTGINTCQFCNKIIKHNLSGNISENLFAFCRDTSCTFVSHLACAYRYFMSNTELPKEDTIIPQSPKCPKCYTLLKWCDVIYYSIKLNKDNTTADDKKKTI

Candida glabrata Slx4 conserved C-terminal domain (domain or fragment)
stoichiometry N [1]: 1 | stoichiometry N [2]: 1

B1: Candida glabrata Slx4 CCD3 (residues 647-726) (domain or fragment, UniProt Q6FJQ6 647-726, looked up)
chain: SNQKKVGVTSKSEVFEFLTHLVKQEPDLLTRIYCFQPITMNDLINKLRNKDSFVDLIDDGTIREWTDKLGICIRSNNLKD
binding result (Candida glabrata Slx1): binds

Source: paper PMC4407285 (Cell Reports, 2015)
